Data set [1] concerns the target T1, hCol2 (human Type II collagen) (Homo sapiens, UniProt P02458).
T1 construct: purchased Chondrex
In words: Binding analysis by SPR (Biacore 3000) vs human type II collagen. As for the experimental part: (§1) Proteins with affinity tag were purified by affinity chromatography and size exclusion. After affinity chromatography purification using Strep-Tactin Superflow high capacity cartridges (IBA Lifesciences) a size exclusion chromatography (SEC) was performed using an Äkta system and a Superdex™ 200 HiLoad 16/600 column (Cytiva). Fused variants with Aflibercept were purified via MabSelect SuRe (Cytiva) affinity chromatography followed by a size exclusion chromatography (SEC) using an Äkta system and a Superdex™ 200 HiLoad 16/600 column (Cytiva). All chromatography processing steps were carried out on AKTA systems using matrices from Cytiva. Homogenous species of all purified ligands were obtained; no aggregation was detected. Following SOS-PAGE analysis positive fractions were pooled and their protein concentrations were measured. Further analysis included SOS-PAGE, SE-HPLC and RP-HPLC. Protein concentrations were determined by absorbance measurement at 280 nm using the molar absorbent coefficient. Reversed phase chromatography (RP-HPLC) was performed using a Dionex HPLC system and a PLRP-S (5 μm, 300 Å) column (Agilent). Analytic size exclusion chromatography (SE-HPLC) was performed using a Dionex HPLC system and a Superdex200 increase 5/150 GL (Cytiva). Binding of Collagen II was evaluated by SPR measurements using a Biacore 3000 system. Purified Collagen II was obtained from Chondrex.inc and VEGF-165 was obtained from Millipore. Targets were immobilized on a CM5-Sensor via NHS/EDC chemistry (immobilization level ˜1000 RU). Binding molecules were injected at different concentration and affinity was calculated by langmuir 1:1 binding model.
(§2) The purified proteins were immobilized on a CM-5 sensor chip (GE Healthcare) using NHS/EDC after PDEA activation resulting in 110-140 RU with a Biacore 3000 system (GE Healthcare). The chip was equilibrated with SPR running buffer (PBS 0.05% Tween pH 7.3). Upon binding, target analyte was accumulated on the surface increasing the refractive index. This change in the refractive index was measured in real time and plotted as response or resonance units versus time. The analytes were applied to the chip in serial dilutions with a flow rate of 30 μl/min. The association was performed for 120 seconds and the dissociation for 120 seconds. After each run, the chip surface was regenerated with 30 μl regeneration buffer (10 mM glycine pH 2.0) and equilibrated with running buffer.
(§3) Binding studies were carried out by the use of the BIAcore 3000 (GE Healthcare); data evaluation was operated via the BIAevaluation 3.0 software, provided by the manufacturer, using the Langmuir 1:1 model (RI=0). Evaluated dissociation constants (KD) were standardized against the immobilized protein and indicated. Shown is the change in refractive index measured in real time and plotted as response or resonance unit [RU] versus time [sec].
A general note: Surface plasmon resonance follows binding to a sensor surface in real time, without labels.

Data set [2] concerns the target Type I collagen (Homo sapiens, UniProt P02452+P08123). Put plainly: SPR specificity vs Type I collagen. The format is binding. How it is done:
as §2, §3

Data set [3] concerns the target T2, Type III collagen (Homo sapiens, UniProt P02461).
T2 sequence (P02461 154-1221 limits assumed): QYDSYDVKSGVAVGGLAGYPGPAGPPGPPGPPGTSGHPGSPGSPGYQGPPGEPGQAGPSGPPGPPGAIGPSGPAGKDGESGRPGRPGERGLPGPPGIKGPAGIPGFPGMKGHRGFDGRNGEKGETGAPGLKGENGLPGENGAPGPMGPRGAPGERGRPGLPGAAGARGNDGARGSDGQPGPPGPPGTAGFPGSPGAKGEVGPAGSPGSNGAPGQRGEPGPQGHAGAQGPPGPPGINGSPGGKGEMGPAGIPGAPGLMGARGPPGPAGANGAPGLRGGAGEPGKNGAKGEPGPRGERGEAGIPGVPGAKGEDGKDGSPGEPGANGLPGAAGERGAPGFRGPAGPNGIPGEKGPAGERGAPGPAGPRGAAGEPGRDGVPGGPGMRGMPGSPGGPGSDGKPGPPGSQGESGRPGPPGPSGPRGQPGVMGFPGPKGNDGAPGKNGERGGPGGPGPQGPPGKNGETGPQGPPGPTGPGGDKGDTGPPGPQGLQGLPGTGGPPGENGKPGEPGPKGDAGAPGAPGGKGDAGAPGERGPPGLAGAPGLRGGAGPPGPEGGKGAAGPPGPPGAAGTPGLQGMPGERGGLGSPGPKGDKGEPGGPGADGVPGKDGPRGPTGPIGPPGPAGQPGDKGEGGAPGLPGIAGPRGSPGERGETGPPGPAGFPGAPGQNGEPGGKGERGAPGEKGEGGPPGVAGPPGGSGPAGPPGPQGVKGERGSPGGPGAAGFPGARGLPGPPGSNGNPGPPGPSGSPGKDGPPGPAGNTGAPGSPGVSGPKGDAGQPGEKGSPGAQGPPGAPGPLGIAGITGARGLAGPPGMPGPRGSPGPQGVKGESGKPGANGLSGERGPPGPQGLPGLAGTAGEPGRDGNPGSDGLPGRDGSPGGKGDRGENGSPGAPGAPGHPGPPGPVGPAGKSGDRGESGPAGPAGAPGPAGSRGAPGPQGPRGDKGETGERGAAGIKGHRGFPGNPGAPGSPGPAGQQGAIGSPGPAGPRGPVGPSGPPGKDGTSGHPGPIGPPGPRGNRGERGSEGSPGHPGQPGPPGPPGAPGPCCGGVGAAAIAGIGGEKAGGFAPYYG
Put plainly: SPR specificity vs Type III collagen. Format: binding. As for the experimental part:
as §2, §3

Data set [4] deals with Type V collagen (Homo sapiens, UniProt P05997+P20908). Put plainly: SPR specificity vs Type V collagen. Format: binding. As for the experimental part: as §2, §3
Chain of Type V collagen (P20908 38-1605 limits assumed): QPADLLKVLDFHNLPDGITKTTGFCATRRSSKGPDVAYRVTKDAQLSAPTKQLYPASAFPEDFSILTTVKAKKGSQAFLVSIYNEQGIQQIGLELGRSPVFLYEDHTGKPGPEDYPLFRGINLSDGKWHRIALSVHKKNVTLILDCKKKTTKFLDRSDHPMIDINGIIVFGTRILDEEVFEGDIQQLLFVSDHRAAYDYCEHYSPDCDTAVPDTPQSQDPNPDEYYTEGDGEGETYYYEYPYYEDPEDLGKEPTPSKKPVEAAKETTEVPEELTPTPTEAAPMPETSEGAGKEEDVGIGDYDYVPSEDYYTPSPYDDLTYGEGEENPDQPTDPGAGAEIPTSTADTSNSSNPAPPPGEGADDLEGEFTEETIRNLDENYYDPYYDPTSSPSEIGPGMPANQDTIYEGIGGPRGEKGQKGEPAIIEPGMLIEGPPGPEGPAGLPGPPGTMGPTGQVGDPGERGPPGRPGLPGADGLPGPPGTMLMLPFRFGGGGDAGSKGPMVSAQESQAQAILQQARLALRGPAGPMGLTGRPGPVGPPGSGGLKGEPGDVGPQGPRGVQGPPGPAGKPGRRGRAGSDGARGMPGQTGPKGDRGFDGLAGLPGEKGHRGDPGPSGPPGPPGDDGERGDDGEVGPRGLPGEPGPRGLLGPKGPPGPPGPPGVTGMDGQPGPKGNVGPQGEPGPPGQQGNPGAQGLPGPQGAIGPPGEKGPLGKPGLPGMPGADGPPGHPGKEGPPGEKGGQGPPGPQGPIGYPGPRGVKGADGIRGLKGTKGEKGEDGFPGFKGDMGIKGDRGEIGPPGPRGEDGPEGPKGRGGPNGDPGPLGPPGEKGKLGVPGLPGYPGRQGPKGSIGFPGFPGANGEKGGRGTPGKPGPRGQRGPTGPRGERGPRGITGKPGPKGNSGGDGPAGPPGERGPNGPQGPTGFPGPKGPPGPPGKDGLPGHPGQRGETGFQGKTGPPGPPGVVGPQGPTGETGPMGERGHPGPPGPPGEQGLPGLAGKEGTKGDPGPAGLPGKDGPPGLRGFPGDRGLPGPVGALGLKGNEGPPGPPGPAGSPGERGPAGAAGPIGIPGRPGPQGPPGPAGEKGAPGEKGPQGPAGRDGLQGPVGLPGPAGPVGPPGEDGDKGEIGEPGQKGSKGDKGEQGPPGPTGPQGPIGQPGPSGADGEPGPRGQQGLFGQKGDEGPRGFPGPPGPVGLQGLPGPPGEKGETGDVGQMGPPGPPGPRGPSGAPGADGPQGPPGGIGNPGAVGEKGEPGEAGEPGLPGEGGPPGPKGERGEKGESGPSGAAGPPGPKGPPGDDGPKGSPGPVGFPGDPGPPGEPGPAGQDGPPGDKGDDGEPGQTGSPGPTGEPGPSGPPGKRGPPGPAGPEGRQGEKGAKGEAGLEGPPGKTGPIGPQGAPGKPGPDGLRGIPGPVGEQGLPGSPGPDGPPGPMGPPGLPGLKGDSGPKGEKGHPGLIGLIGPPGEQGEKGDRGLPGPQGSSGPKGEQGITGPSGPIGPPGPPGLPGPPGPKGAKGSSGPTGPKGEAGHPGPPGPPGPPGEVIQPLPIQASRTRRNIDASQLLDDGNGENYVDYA
Chain of Type V collagen (P05997 27-1229 limits assumed): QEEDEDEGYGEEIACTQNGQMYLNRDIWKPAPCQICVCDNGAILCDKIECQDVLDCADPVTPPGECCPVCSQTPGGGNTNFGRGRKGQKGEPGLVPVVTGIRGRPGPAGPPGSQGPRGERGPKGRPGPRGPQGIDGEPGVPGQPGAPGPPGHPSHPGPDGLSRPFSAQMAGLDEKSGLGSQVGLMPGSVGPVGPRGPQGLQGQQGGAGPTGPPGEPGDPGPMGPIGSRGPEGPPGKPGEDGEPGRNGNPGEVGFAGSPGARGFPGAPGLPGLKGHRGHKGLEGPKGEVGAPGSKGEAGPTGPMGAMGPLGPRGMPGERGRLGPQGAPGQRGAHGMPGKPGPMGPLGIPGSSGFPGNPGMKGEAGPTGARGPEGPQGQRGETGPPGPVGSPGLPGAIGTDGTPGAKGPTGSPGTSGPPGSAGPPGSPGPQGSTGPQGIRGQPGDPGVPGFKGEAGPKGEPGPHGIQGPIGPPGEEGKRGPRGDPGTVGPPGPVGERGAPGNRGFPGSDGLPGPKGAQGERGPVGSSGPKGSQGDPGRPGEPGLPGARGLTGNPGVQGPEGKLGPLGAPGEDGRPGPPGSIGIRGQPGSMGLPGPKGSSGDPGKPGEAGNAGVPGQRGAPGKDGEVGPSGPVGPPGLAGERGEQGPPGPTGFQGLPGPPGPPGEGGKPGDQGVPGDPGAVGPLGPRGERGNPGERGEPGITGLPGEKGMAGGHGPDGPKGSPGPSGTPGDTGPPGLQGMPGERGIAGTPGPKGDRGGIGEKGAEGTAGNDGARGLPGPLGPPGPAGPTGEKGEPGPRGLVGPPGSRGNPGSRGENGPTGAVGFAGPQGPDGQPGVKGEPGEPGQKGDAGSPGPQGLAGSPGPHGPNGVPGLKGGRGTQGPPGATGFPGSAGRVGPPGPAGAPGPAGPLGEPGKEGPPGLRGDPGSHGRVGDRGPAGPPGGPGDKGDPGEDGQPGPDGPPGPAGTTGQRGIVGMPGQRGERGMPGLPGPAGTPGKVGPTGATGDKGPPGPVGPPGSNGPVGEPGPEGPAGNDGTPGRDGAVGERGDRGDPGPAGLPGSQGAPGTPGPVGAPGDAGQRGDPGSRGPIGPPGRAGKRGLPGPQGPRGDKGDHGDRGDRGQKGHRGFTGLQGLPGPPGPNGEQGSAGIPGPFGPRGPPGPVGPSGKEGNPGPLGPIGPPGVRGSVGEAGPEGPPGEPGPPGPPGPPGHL
In data set [5] the target is T3, recombinant human collagen type II (h Col II) (Homo sapiens, UniProt P02458).
T3 construct: purchased Chondrex CHX-20051
T3 sequence (P02458 182-1241): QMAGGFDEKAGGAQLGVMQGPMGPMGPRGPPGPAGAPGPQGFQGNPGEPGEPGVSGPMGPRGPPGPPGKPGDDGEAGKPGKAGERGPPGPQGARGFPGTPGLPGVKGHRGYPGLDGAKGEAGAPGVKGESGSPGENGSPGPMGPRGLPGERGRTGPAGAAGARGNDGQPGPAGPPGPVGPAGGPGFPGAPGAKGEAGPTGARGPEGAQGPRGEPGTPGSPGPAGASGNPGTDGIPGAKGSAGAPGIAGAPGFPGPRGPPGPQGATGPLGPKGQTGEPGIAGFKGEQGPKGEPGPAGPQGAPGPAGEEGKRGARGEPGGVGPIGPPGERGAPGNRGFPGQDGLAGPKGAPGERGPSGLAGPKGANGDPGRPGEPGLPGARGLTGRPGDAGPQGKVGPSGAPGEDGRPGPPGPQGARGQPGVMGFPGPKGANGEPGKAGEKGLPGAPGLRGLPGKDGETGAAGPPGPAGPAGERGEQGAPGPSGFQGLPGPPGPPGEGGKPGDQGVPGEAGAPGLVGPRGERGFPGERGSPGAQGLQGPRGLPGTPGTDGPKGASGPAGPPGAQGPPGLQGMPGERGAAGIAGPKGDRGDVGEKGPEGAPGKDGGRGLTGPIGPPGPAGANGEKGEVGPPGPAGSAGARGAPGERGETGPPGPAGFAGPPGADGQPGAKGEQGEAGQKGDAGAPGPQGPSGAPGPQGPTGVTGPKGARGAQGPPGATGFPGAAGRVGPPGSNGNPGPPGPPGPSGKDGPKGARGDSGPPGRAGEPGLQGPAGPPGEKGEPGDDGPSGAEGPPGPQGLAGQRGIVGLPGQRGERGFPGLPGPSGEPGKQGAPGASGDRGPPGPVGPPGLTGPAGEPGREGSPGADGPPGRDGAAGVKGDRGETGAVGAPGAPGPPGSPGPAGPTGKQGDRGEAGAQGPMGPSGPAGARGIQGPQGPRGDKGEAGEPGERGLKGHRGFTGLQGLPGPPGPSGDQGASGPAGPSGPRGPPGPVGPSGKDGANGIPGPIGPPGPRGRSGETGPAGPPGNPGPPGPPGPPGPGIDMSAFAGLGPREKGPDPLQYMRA
Put plainly: KD-determination by ELISA vs human collagen type II. Format: binding. How it is done:
(§4) High binding plates (Greiner, 781061) were immobilized with 2.5 μg/ml recombinant human collagen type II (h Col II, Chondrex, CHX-20051), rabbit collagen type II (rbCol II, prepared from rabbit eyes), porcine collagen type II (p Col II, prepared from porcine eyes), human collagen type I, (h Col I, Sigma, C5483-1MG), human collagen type V (h Col V, Abcam, ab7537), human collagen type III (h Col Ill, Abcam, ab7535) and 67B89 (domain of fibronectin, produced in E. coli) respectively over night at 4° C. ELISA-plates were washed 3 times with PBST (PBS+ 0.1% Tween) and blocked with 3% BSA/0.5% Tween/PBS 2 h at RT. After washing with PBST, dilution series of 1.1 μM to 7×10^−4 nM of dimers (CID 211999, CID 212000), dilution series of 100 nM to 7×10^−6 nM of tetramers (CID 212001 and CID 212704) and dilution series of 10 μM to 2 nM of dimer (CID 212705) were incubated on ELISA-plates 1 h at rt. Plates were washed with PBST and incubated with biotinylated anti-StrepTag-ab (Antikörper-online, ABIN1573895) with a dilution of 1:10.000 for 1 h at rt. The binding was visualized with a-rabbit-IgG-HRP (Sigma, A9169) with a dilution of 1:10.000 and as substrate TMB Plus von KEM EN TEC Diagnostic, Kat-Nr. 4395.
(In general: An ELISA detects its analyte on a solid surface through an enzyme-linked reagent.)

In data set [6] the target is T4, porcine collagen type II (p Col II) (Sus scrofa, UniProt A0A287A2Q7).
T4 construct: porcine collagen type II (p Col II, prepared from porcine eyes); from tissue; host or cells: porcine eyes
Put plainly: KD-determination by ELISA vs porcine collagen type II. The format is binding. How it is done:
as §4

A short description of data set [7]: Soluble expression in Escherichia coli BL21(DE3). Format: physicochemical. The conditions noted are these: expression in E. coli BL21(DE3). How it is done:
Variants with affinity tag were expressed in Escherichia coli BL21(DE3) using a low copy plasmid system under regulation of a T7 promoter. Proteins were produced in soluble form after induction by lactose included in the medium (autoinduction medium). BL21 (DE3) competent cells were transformed with the expression plasmid, spread onto selective agar plates (kanamycin) and incubated overnight at 37° C. Precultures were inoculated from single colony in 3 ml 2×YT medium supplemented with 50 μg/ml kanamycin and cultured for 6 hours at 37° C. at 200 rpm in a conventional orbital shaker in culture tubes. […] Cultures were transferred to an orbital shaker and incubated at 30° C. and 200 rpm. Recombinant protein expression was induced by metabolizing glucose and subsequently allowing lactose to enter the cells. Cells were grown overnight for approx. 17 hours to reach a final OD600 of about 2-4. Before the harvest, the OD600 was measured, samples adjusted to 0.6/OD600 were withdrawn, pelleted and frozen at −20° C. To collect biomass cells were centrifuged at 12000×g for 15 min at 22° C. Pellets were weighed (wet weight). Cells were stored at −20° C. before processing.
as §1

In general, Kd refers to the concentration at which binding is half-saturated.

T1 sequence (P02458 182-1241): as above

B1: CID 211519: homodimer of SEQ ID NO: 11 (protein)
chain: IAAKFDEAQQAAFYEILHLPNLTEQQRNYFIQWLRDDPSVSPTVLGTAQQLNDSQAPKIAAKFDEAQQAAFYEILHLPNLTEQQRNYFIQWLRDDPSVSPTVLGTAQQLNDSQAPK
modifications: Col2 binding protein (dimer) 211519
Turning to B1, the “Binding to type II collagen via SPR” value in data set [1] (FIG. 3, FIG. 4A) is “binding to Type II collagen with transient binding signal”. In addition, the “Affinity [SPR] vs hCol2” value in data set [1] (dimers or tetramers, Langmuir 1:1 model) is reported as 784 nM. In addition, in data set [1] (multi-cycle Biacore measurement, FIG. 4B, read-out: KD for Type II collagen, equilibrium fit of amplitudes), the dissociation constant Kd was 780 nM. The “Binding to Type I collagen (SPR)” value in data set [2] was “no binding”. For the same molecule, the “Binding to Type III collagen (SPR)” value in data set [3] was “no binding”. Besides, the “Binding to Type V collagen (SPR)” value in data set [4] is “no binding”. The “binding affinity (KD) to human type II collagen (ELISA)” value in data set [5] turned out to be 700 nM. Besides, the “specific binding vs porcine type II collagen (ELISA)” value in data set [6] is 0.7 µM. Moreover, the “Solubility Soluble expression” value in data set [7] came out at 95%.

The values above are taken from patent publication US20230416345A1, “NEW TYPE II COLLAGEN BINDING PROTEINS” (Navigo Proteins GmbH, priority 2020, published 2023).
